Positions count from the first letter of the chain named.
How the values were obtained:
Assay in all cases: high-throughput RNA pulldown from lysate on Ni-NTA beads; HRP: 50 mM Tris pH 8, 150 mM NaCl, 1 mM beta-mercaptoethanol, 50 ug/ml BSA, 3 ug/ml yeast RNA, 0.5% heparin; ITC and FP: Tris pH 8, 200 mM KCl, 5% glycerol; MST: 50 mM Tris pH 8, 200 mM NaCl, 1 mM DTT, BSA, heparin, 0.05% Tween 20
Details in all cases: tags: N-terminal His-eGFP
[1] = biological target: T1, GFP-9S library array, motif 4 ND N98M;D124T (synthetic construct, N98M;D124T)
T1 chain: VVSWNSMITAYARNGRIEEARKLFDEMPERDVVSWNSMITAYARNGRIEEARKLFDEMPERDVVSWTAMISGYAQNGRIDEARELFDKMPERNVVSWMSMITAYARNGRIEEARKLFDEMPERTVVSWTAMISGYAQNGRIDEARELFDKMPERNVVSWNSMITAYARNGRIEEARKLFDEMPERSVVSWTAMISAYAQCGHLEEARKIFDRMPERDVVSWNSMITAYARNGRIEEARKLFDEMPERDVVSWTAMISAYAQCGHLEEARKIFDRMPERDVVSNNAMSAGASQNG

[2] = biological target: T2, GFP-9S library array, motif 4 ND N98M;D124S (synthetic construct, N98M;D124S)
T2 chain: T1 chain with T124S

[3] = biological target: T3, GFP-9S library array, motif 4 ND N98S (synthetic construct, N98S)
T3 chain: T1 chain with M98S, T124D

[4] = biological target: T4, GFP-9S library array, motif 4 ND N98S;D124V (synthetic construct, N98S;D124V)
T4 chain: T1 chain with M98S, T124V

[5] = biological target: T5, GFP-9S library array, motif 4 ND N98S;D124E (synthetic construct, N98S;D124E)
T5 chain: T1 chain with M98S, T124E

Binder: AUUACACGUGA (ssRNA) [Cy5-rpoA]
- Kd ([1]; label: 5' Cy5): 124 nM
- Kd ([2]; label: 5' Cy5): 50.4 nM
- Kd ([3]; label: 5' Cy5): 413 nM
- Kd ([4]; label: 5' Cy5): 114 nM
- Kd ([5]; label: 5' Cy5): 276 nM

Binder: AUUAGACGUGA (ssRNA) [Cy5-rpoA-G]
- Kd ([1]; label: 5' Cy5): 115 nM
- Kd ([2]; label: 5' Cy5): 73.1 nM
- Kd ([3]; label: 5' Cy5): 17.2 nM
- Kd ([4]; label: 5' Cy5): 74.5 nM
- Kd ([5]; label: 5' Cy5): 122 nM

Binder: AUUAAACGUGA (ssRNA) [IR-rpoA-A]
- Kd ([1]; label: 5' IRDye 800CW): 116 nM
- Kd ([2]; label: 5' IRDye 800CW): 65.9 nM
- Kd ([3]; label: 5' IRDye 800CW): 574 nM
- Kd ([4]; label: 5' IRDye 800CW): 51.2 nM
- Kd ([5]; label: 5' IRDye 800CW): 70.5 nM

Binder: AUUAUACGUGA (ssRNA) [IR-rpoA-U]
- Kd ([1]; label: 5' IRDye 800CW): 109 nM
- Kd ([2]; label: 5' IRDye 800CW): 48.4 nM
- Kd ([3]; label: 5' IRDye 800CW): 262 nM
- Kd ([4]; label: 5' IRDye 800CW): 152 nM
- Kd ([5]; label: 5' IRDye 800CW): 201 nM

From paper PMC8809517, “Cofactor-independent RNA editing by a synthetic S-type PPR protein”
